Reference: patent US6953577B2, “Human methionine aminopeptidase type 3” (Pharmacia Corporation, priority 1999, dated 2005)

Test system: CSCC[C@H](N)C(=O)N[C@@H](C)C(=O)N[C@@H](CO)C(=O)O
Assay: purified protein, by the assay type
Settings: other: hydrolysis of methionine from MAS peptide substrate; pH 7.5
Method: Hydrogen peroxide, produced by the L-amino acid oxidase reaction, was measured by monitoring the formation of resorufin from Amplex Red in a reaction catalyzed by of horseradish peroxidase. […] The reaction was performed in a 96-well plate format at ambient temperature using the following assay buffer: 20 mM HEPES-Na pH 7.5, 100 mM NaCl, 0.1 mM CoCl2 containing 100 μM Amplex Red, 0.15 U/ml L-amino acid oxidase, 0.5 U/ml horseradish peroxidase.
The IC50 values were determined under conditions in which enzyme concentration and reaction time were linear.

recombinant human MetAP-1 (Homo sapiens)
Km: 8.5 mM
kcat: 0.75 s⁻¹
